This assay addresses TTLL7-treated microtubules (mouse brain tubulin) (mouse (endogenous in brain)) (UniProt P68369). The assay can be described thus: TIRF microscopy, single-molecule imaging (kymographs, dwell time); MTs immobilised on a cover glass by a tubulin antibody; Kif5c-GFP in imaging buffer (BRB80, 1 mM ATP, 20 μM taxol); 35 °C; dwell times from kymographs, events shorter than 0.2 s left out, single exponential fit.

Experimental findings from PMC10404701 are described below.

Chain of UniProt P68369 (P68369 whole entry, chain 1 of 2): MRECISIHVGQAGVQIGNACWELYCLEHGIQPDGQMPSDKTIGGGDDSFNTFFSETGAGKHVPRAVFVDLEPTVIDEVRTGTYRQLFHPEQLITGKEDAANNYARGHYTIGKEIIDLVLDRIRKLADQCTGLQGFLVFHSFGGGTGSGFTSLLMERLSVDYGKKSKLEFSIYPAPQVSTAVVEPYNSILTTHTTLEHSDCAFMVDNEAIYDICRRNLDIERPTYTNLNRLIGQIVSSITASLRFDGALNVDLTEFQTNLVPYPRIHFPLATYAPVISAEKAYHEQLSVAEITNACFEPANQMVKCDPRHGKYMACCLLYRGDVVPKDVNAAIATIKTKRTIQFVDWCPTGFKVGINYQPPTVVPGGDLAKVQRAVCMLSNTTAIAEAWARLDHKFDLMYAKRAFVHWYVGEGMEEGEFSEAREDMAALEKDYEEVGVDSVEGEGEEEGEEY
Chain of UniProt P68369 (Q7TMM9 whole entry, chain 2 of 2, further chain): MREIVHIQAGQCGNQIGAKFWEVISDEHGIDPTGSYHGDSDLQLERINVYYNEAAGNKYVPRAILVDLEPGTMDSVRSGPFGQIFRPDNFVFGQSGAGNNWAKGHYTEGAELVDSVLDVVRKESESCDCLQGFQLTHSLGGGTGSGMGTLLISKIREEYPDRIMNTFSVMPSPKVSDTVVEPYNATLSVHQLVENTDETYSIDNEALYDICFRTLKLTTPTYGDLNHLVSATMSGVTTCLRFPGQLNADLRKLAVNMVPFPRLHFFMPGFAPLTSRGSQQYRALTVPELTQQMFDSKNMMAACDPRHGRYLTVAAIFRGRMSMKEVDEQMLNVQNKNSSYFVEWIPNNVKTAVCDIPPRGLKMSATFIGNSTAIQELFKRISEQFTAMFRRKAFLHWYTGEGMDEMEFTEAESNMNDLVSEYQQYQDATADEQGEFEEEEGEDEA

Substance “Kif5c-GFP (amino acids: 1–430) (from UniProt P56536 1-430) (domain or fragment)” gave a dwell time of 0.5 s.
